Source: patent US10227617B2, “Sequestration of carbon dioxide with hydrogen to useful products” (UNIVERSITY OF GEORGIA RESEARCH FOUNDATION, INC., priority 2012, dated 2019)

Key:
[1] = at 65 C; cited from earlier work
[2] = Acetoacetyl-CoA β-ketothiolase discontinuous DTNB assay; assay type: biochemical; settings: 70° C
[3] = substrate: CC(=O)CC(=O)SCCNC(=O)CCNC(=O)[C@H](O)C(C)(C)COP(=O)(O)OP(=O)(O)OC[C@H]1O[C@@H](n2cnc3c(N)ncnc32)[C@H](O)[C@@H]1OP(=O)(O)O; test: purified protein, by the assay type; settings: other: Msed_0656, 70° C., pH 7.5; 70.0 °C
[4] = 4-hydroxybutyryl-CoA dehydratase coupled spectrophotometric assay; assay type: biochemical; settings: 70° C
Method: (§1) 4-hydroxybutyryl-CoA dehydratase (Msed_1321). The enzyme was purified using a 5 ml Bio-Scale Mini Profinity IMAC cartridge (Bio-Rad). The soluble, heat-treated lysate was loaded onto the column with binding buffer (50 mM Tris, 300 mM NaCl, 3.5 mM DTT, 20 mM imidazole, pH 8.0) and the his-tagged enzyme removed with elution buffer (50 mM Tris, 300 mM NaCl, 3.5 mM DTT, 500 mM imidazole, pH 8.0). The fraction collector was positioned inside the anaerobic chamber, and fractions containing enzyme were collected, concentrated, and dialyzed into reaction buffer (100 mM potassium phosphate, pH 7.5, 1 mM DTT). The enzyme solution was either stored at room temperature inside the anaerobic chamber for immediate use or mixed with glycerol to 20% and stored at −20° C. in a sealed vacuum dessicator. Enzyme activity was measured aerobically in a coupled spectrophotometric assay at 70° C. The assay mixture contained 20 mM sodium phosphate, 5 mM MgCl2, 2 mM 4HB, 2 mM ATP, 1 mM CoA, 2 mM NAD^+, 1 mM DTT, 1 mg/ml purified Msed_0406, and 42 ng/ml Msed_0399. The reaction mixture was pre-heated for 5 min at 70° C. to allow accumulation of 4HB-CoA, and then initiated by addition of purified Msed_1321. For the oxygen-sensitivity assay, Msed_1321 was washed with 100 mM potassium phosphate, pH 7.5, to remove any DTT from the reaction buffer. […]

[5] = Oxygen-sensitivity assay of 4-hydroxybutyryl-CoA dehydratase; settings: exposed to air
Method: as §1

[6] = Scherf et al., 1993; cited from earlier work
[7] = Crotonyl-CoA hydratase assay, NAD+ reduction at 340 nm; assay type: biochemical; settings: C-CoA, hydratase reaction; 70° C
Method: (§2) Crotonyl-CoA hydratase/(S)-3-Hydroxybutyryl-CoA dehydrogenase (Msed_0399). The enzyme was purified first using a Q-sepharose HiLoad 16/10 anion exchange column (GE Healthcare). The protein was loaded onto the column with 20 mM Tris, pH 8.0, and eluted with 20 mM Tris, 1 M NaCl, pH 8.0 using a linear elution gradient. Fractions containing Msed_0399 were confirmed with SDS-PAGE, collected and dialyzed into buffer for size exclusion chromatography (50 mM potassium phosphate, 150 mM NaCl, pH 7.0). The partially-purified protein was further separated on a HiLoad 26/600 Superdex 200 PG column, and the elution fractions containing Msed_0399 were collected, concentrated, and dialyzed into reaction buffer (100 mM MOPS, pH 7.5), and then either stored at 4° C. for immediate use or mixed with glycerol to 20% and stored at −20° C. Enzyme activity was measured spectrophotometrically at 70° C. by following NAD^+ reduction at 340 nm (extinction coeffienct at 340 nm=[…]) (Berg et al., 2007. Science 318:1782-1786). The assay mixture contained 20 mM MOPS (pH 7.0), 5 mM MgCl2, 2 mM NAD^+, 0.5 mM crotonyl-CoA or (S)-3-hydroxybutyryl-CoA, and purified enzyme. The reaction mixture was preheated for 2 min at 70° C. and the reaction initiated by addition of substrate.

[8] = (S)-3-Hydroxybutyryl-CoA dehydrogenase assay, NAD+ reduction at 340 nm; assay type: biochemical; settings: 3HB-CoA, dehydrogenase reaction; 70° C
Method: as §2

[9] = substrate: C/C=C/C(=O)SCCNC(=O)CCNC(=O)[C@H](O)C(C)(C)COP(=O)(O)OP(=O)(O)OC[C@H]1O[C@@H](n2cnc3c(N)ncnc32)[C@H](O)[C@@H]1OP(=O)(O)O; test: crotonyl-CoA hydratase reaction of Msed_0399, NAD+ reduction at 340 nm; assay type: biochemical, Metallosphaera sedula; settings: other: Msed_0399 (C-CoA), 70° C., pH 7.0
Source text: (§3) The crotonyl-CoA hydratase/(S)-3-hydroxybutyrl-CoA dehydrogenase activity of a polypeptide may be determined by routine methods known in the art. An example of such a polypeptide includes an amino acid sequence encoded by coding sequence Msed_0399 of Genbank accession NC_009440 and disclosed at SEQ ID NO:16.
(§4) Heterologous expression of M. sedula genes in E. coli. Msed_0406, Msed_1321, Msed_0399, and Msed_0656 were amplified from genomic DNA using primers from IDT Technologies (Coralville, Iowa). Msed_0406 was cloned into pET46-Ek/LIC with an N-terminal His6 tag, as described in Example 1. Msed_1321 was cloned with an N-terminal His6 tag into a modified pETA vector, into which the anaerobic hya promoter from E. coli had been inserted to allow for anaerobically-regulated expression (Sun et al., 2010. PLoS One 5:e10526). Msed_0399 was cloned into pET21b without a His-tag, and Msed_0656 was cloned into pCDF-Ek/LIC with an N-terminal His6 tag. All four constructs were individually cloned into NovaBlue GigaSingles E. coli competent cells and selected by growth on LB-agar supplemented with antibiotic. Sequences were confirmed by Eton Biosciences, Inc. (Durham, N.C.). Next, the plasmids were transformed into E. coli Rosetta 2 (DE3) cells for protein expression. Rosetta strains containing pET46-0406, pET21b-0399, and pCDF-0656 were grown and expressed aerobically at 37° C. for 16 h in Studier's auto-inducing medium ZYM-5052 (Studier, 2005. Protein Expression and Purification 41:207-234). Rosetta cells containing pETA-1321 plasmid were grown in a 2 L Applikon bioreactor (37° C., 800 rpm, pH 6.7, 0.5 slpm air) in Studier's non-inducing medium ZYM-505 with 0.5 mM FeCl3. […]
(§5) Crotonyl-CoA hydratase/(S)-3-Hydroxybutyryl-CoA dehydrogenase (Msed_0399). […] Enzyme activity was measured spectrophotometrically at 70° C. by following NAD^+ reduction at 340 nm (extinction coeffienct at 340 nm=[…]) (Berg et al., 2007. Science 318:1782-1786). […]

[10] = substrate: C[C@H](O)CC(=O)SCCNC(=O)CCNC(=O)[C@H](O)C(C)(C)COP(=O)(O)OP(=O)(O)OC[C@H]1O[C@@H](n2cnc3c(N)ncnc32)[C@H](O)[C@@H]1OP(=O)(O)O; test: (S)-3-hydroxybutyryl-CoA dehydrogenase reaction of Msed_0399, NAD+ reduction at 340 nm; assay type: biochemical, Metallosphaera sedula; settings: other: Msed_0399 (3HB-CoA), 70° C., pH 7.0
Source text: as §3, §4, §5

For `O=C(O)O` [carbonic acid], the “apparent pKa of the ionization to bicarbonate” value [1] is given as “about 6.3”.

B1: Metallosphaera sedula acetoacetyl-CoA β-ketothiolase Msed_0656, SEQ ID NO:17, recombinant (Metallosphaera sedula DSM 5348) (protein)
chain: MPDVYIVSAVRTPIGRFGGSLKSVKPQMLGAIAIKEALRRANTDPSRVELTIMGNVLRSGHGQDLARQAALLAGIPWEVDGYCVDMVCSSGMMGVTNAAQMIKSGDADVVVAGGMESMSQSMLAVNSEVRWGVKFLSGKSLNFIDTMLVDGLTDPFNLKLMGQEADMVARERDISRRELDEVAFESHRRAHQAWEKGLFKSEVIPVNLDEGKLERDEGIRPDTTMEKLSSLKPAFTENGYHTAGNSSQISDGAVAMVLMSEKAVKEFGVDPVAKILGYSWVGIESWRFTEAPLYSVRKLLTRLNMNITQFDYFENNEAFAVNNVLFHRYLGVPYDQLNVFGGAIALGHPIGASGARIMVTLLNVLSKMNATRGIASICHGVGGSTAIALELLRPL
Molecule B1 has a Vmax [2] of 1400 µmol/min/mg, a Km [3] of 180 µM and a Vmax [3] of 1400 µmol/min/mg. It also gave a kcat [3] of 1000 s⁻¹.

B2: Msed_1321: M. sedula 4-hydroxybutyryl-CoA dehydratase, SEQ ID NO:15 (protein, listed as Metallosphaera sedula)
chain: MVVRTGEQYLQSISNRSKVEIYVMGREVKDVTKHPFLKPSVMSFKATFDAAWEEDTKELGRAWSPYLEEEINRFNHIHRSPDDLAAKVKLLRKLSHKTGACFQRCVGWDSLNTLHIVTTMMAKKGKTEVRDRFVEYLKYVQKNDLALAGAMTDAKGIRNLKPSQQPNKNAYLRITEVTKDGIYVSGAKANITGVAATEEMVVLPTRAMGPEDKDYAVAFAIPTDTEGVKIVVGRQLNDARRMEEGEIDGLPYFYNHEGLVIFDNVFVPMNRVFLAGEWEYTGTLVEIFSAYHRQGYGGCKAGLGDVIIGASADLAKQIGVDRASHVQDKLTEMIFLTETMYSAGIAASLNAVKMCDNCWWVNPMHANVTKHLVARFPSQIAQLSIDLAGGIVGTAPSEWDLKNPKLKEYISRYLQGAEDFTAEDRLRMVRLVENVSMGVAFQIESVHGAGSPAAQRIMFSRLYDLNFAQEVAKKLAGRKSEVKFTSKAEPWRESQSEAEAKEAGLKS
For B2, the Vmax [4] was 2.2 µmol/min/mg and the “duration of initial activation upon exposure to air” value [5] was “about 15 hours”.

B3: clostridal homolog: 4-hydroxybutyryl-CoA dehydratase from Clostridium aminobutyricum (protein, UniProt P55792 1-490, looked up)
4-hydroxybutyryl-CoA …: MLMTAEQYIESLRKLNTRVYMFGEKIENWVDHPMIRPSINCVAMTYELAQDPQYADLMTTKSNLIGKTINRFANLHQSTDDLRKKVKMQRLLGQKTASCFQRCVGMDAFNAVFSTTYEIDQKYGTNYHKNFTEYLKYIQENDLIVDGAMTDPKGDRGLAPSAQKDPDLFLRIVEKREDGIVVRGAKAHQTGSINSHEHIIMPTIAMTEADKDYAVSFACPSDADGLFMIYGRQSCDTRKMEEGADIDLGNKQFGGQEALVVFDNVFIPNDRIFLCQEYDFAGMMVERFAGYHRQSYGGCKVGVGDVVIGAAALAADYNGAQKASHVKDKLIEMTHLNETLYCCGIACSAEGYPTAAGNYQIDLLLANVCKQNITRFPYEIVRLAEDIAGGLMVTMPSEADFKSETVVGRDGETIGDFCNKFFAAAPTCTTEERMRVLRFLENICLGASAVGYRTESMHGAGSPQAQRIMIARQGNINAKKELAKAIAGIK
For B3, the “time to irreversible inactivation when exposed to air” value [6] is given as ~25 min.

B4: Metallosphaera sedula crotonyl-CoA hydratase/(S)-3-hydroxybutyryl-CoA dehydrogenase Msed_0399, SEQ ID NO:16, recombinant (Metallosphaera sedula DSM 5348) (protein)
chain: MKVTVIGSGVMGHGIAELAAIAGNEVWMNDISTEILQQAMERIKWSLSKLRESGSLKEGVEQVLARIHPETDQAQALKGSDFVIEAVKEDLELKRTIFRNAEAHASPSAVLATNTSSLPISEIASVLKSPQRVVGMHFFNPPVLMPLVEIVRGKDTSDEVVKTTAEMAKSMNKETIVVKDVPGFFVNRVLLRIMEAGCYLVEKGIASIQEVDSSAIEELGFPMGVFLLADYTGLDIGYSVWKAVTARGFKAFPCSSTEKLVSQGKLGVKSGSGYYQYPSPGKFVRPTLPSTSKKLGRYLISPAVNEVSYLLREGIVGKDDAEKGCVLGLGLPKGILSYADEIGIDVVVNTLEEMRQTSGMDHYSPDPLLLSMVKEGKLGRKSGQGFHTYAHEEAKYSTIVVRVEPPLAWIVLNRPTRYNAINGDMIREINQALDSLEEREDVRVIAITGQGRVFSAGADVTEFGSLTPVKAMIASRKFHEVFMKIQFLTKPVIAVINGLALGGGMELALSADFRVASKTAEMGQPEINLGLIPGGGGTQRLSRLSGRKGLELVLTGRRVKAEEAYRLGIVEFLAEPEELESEVRKLANAIAEKSPLAVASAKLAYKLGEETHIWTGTSLEASLFGLLFSTKDFEEGVRAFLEKRKPNFRGE
B4 showed a Vmax [7] of 20 µmol/min/mg, a Vmax [8] of 16 µmol/min/mg and a Km [9] of 70 µM. For the same molecule, the Vmax [9] was 20 µmol/min/mg, the kcat [9] was 19 s⁻¹ and the Km [10] was 60 µM. It also gave a Vmax [10] of 16 µmol/min/mg and a kcat [10] of 15 s⁻¹.
